Data taken from patent publication US20220409668A1, “GENETICALLY MODIFIED HUMAN STEM CELL EXPRESSING A MUTANT HUMAN CYTOCHROME P450 2B6 PROTEIN AND USE THEREOF IN THE TREATMENT OF CANCER” (ASSISTANCE PUBLIQUE-HOPITAUX DE PARIS, priority 2019, published 2022).

Experiment: affinity of cytochrome P450 2B6 protein for cyclophosphamide (CPA) and Vmax
Format: biochemical, human
From the text: In a particularly advantageous embodiment, said variants and fragments have an affinity for CPA that is identical, substantially identical or greater than that of the mutant human cytochrome P450 2B6 protein (CYP2B6*) of SEQ ID No. 1. Methods making it possible to assay said activity and said affinity are well known to a person skilled in the art and are particularly described in Nguyen et al., Mol. Pharmacol., 2008, 73: 1,122-1,133.

B1: CYP2B6*: mutant human cytochrome P450 2B6 protein of SEQ ID No. 1 with 114V, 199M and 477W residues (protein, listed as Homo sapiens)
chain: MELSVLLFLALLTGLLLLLVQRHPNTHDRLPPGPRPLPLLGNLLQMDRRGLLKSFLRFREKYGDVFTVHLGPRPVVMLCGVEAIREALVDKAEAFSGRGKIAMVDPFFRGYGVVFANGNRWKVLRRFSVTTMRDFGMGKRSVEERIQEEAQCLIEELRKSKGALMDPTFLFQSITANIICSIVFGKRFHYQDQEFLKMMNLFYQTFSLISSVFGQLFELFSGFLKYFPGAHRQVYKNLQEINAYIGHSVEKHRETLDPSAPKDLIDTYLLHMEKEKSNAHSEFSHQNLNLNTLSLFFAGTETTSTTLRYGFLLMLKYPHVAERVYREIEQVIGPHRPPELHDRAKMPYTEAVIYEIQRFSDLLPMGVPHIVTQHTSFRGYIIPKDTEVFLILSTALHDPHYFEKPDAFNPDHFLDANGALKKTEAFIPFSLGKRICLGEGIARAELFLFFTTILQNFSMASPVAPEDIDLTPQECGWGKIPPTYQIRFLPR
- affinity for CPA relative to the wild-type protein (CYP2B6 WT) (fold greater than CYP2B6 WT, substitutions I114V, L199M, V477W): more than 8 times
- Vmax compared with wild-type protein (versus CYP2B6 WT, substrate CPA): same Vmax
